Data on two molecules can be found in article PMC11145656 (Structure (London, England : 1993), 2023).

Experiment in all cases: BLI
One assay deals with SARS-CoV-1 RBD (SARS-CoV-1).
Assay [1] has as its target SARSr-CoV Rs4874-GCN S protein (Bat SARS-like coronavirus isolate Rs4874, strain).
The target in assay [2] is SARSr-CoV Rs4231-T4 S protein (bat SARS-related CoV Rs4231).

B1: Ab246 IgG1 (antibody, V domains shown)
VH: QVQLQESGPGLVKPSETLSLTCSVSGDSIGTYYWSWIRQSPEKGLEWIGYIHHSGKTNYNPSLKSRVTMSVDTSKNQFSLKLTSVTAADTAVYYCARSPIGYCSSTKCYIDKPFDSWGQGTLVTVSS
VL: QAVLTQPSSLSASPGASASLTCTLRGGINVVNQRLYWYQQKPGSPPRFLLKYKSDSDNFLGSGVPSRFSGSKDASANAGILLISEVQSEDEADYYCMMWHSSAYVFGGGTKLTVL
Take B1: the binding result (with SARS-CoV-1 RBD; in assay [1]) was “binds” each time.

B2: CR3022 IgG1 (antibody, V domains shown)
VH: EVQLVQSGTEVKKPGESLKISCKGSGYGFITYWIGWVRQMPGKGLEWMGIIYPGDSETRYSPSFQGQVTISADKSINTAYLQWSSLKASDTAIYYCAGGSGISTPMDVWGQGTTVTVSS
VL: not shown
As to B2, the binding result in assay [1] and in assay [2] was “binds” in each case.
